In patent publication US10704030B2, “P450-BM3 variants with improved activity” (Codexis, Inc., priority 2015, dated 2020):

How the values were obtained:
Format in all cases: biochemical
[1] = Validation of generalist properties: oxidation of diclofenac by lyophilized P450-BM3 variant, UPLC-MS; conditions: for % Conv. / TON: [Diclofenac] = 1 mM; for TON: TON = [substrate]*% conversion/[P450]
Experimental: (§1) For the production of lyophilized protein powders, LB agar plates supplemented with chloramphenicol (30 μg/mL) were streaked with E. coli containing a desired B. megaterium P450-BM3 variant in an IPTG-inducible vector. The plates were grown at 37° C. for 16 hrs before single clones were selected to inoculate a 15 mL Falcon™ tube (Fisher) containing TB media (3 mL) supplemented with chloramphenicol (30 μg/mL). The tube was shaken at 200 rpm, 30° C., and 85% humidity for 20-24 h to grow the cultures to saturation. Then, 2.5 mL of the overnight culture was used to inoculate sterile 1 L flasks containing TB medium (250 mL) supplemented with chloramphenicol (30 μg/mL), trace element solution (as described above), and 0.05 g/L ammonium iron (III) citrate. After being shaken at 250 rpm, 30° C., and 85% humidity to an OD600 of 0.8-1.2, P450 expression was induced by addition of IPTG (500 uM) and the heme precursor 5-aminolevulinic acid (5-ALA) to a final concentration of 500 uM. The cultures were grown for additional 20-24 hours and centrifuged in pre-weighed 250 mL centrifuge bottles for 20 minutes at 4000 rpm, 4° C. The supernatants were discarded, and the centrifuge bottles containing cell pellets were weighed. The pellets were resuspended in 50 mM potassium phosphate buffer with 2 mM DTT, pH 8.0 (5 mL of buffer per gram of cell pellet). The cells were lysed using a microfluidizer homogenizer, and the suspensions of cells and lysate were collected in sterile 50 mL centrifuge tubes. The samples were centrifuged for 30 minutes at 10,000 rpm, 4° C. The clarified lysate was collected into a plastic petri plate and frozen at −80° C. prior to lyophilization. The enzyme-containing lysates were lyophilized using standard methods known in the art.
(§2) Enzyme stocks (˜12 μM) were prepared by dissolving ˜20 mg of each enzyme in 100 mM potassium phosphate buffer, pH 8.0 (1 mL). The concentration of each enzyme stock solution was determined by the UV-visible absorption spectroscopy (after centrifugation to remove particulates) and diluted to standardize at 12 μM heme protein. Substrate solutions were prepared by dissolving each substrate in DMSO to reach a final concentration of 20 mM or 40 mM. Reaction mix (235 μL) followed by enzyme solution (50 μL) was added to the plates. The substrate stock solution was added to the enzyme solutions (15 μL at the two different concentrations). Each reaction contained 100 mM potassium phosphate, 1.0 mM NADP+, 25 mM glucose, 0.5 mg/mL glucose dehydrogenase, 5% DMSO and substrate at 1 or 2 mM. Loratadine, imatinib, and gefitinib (See, FIG. 1) were selected as substrates in addition to diclofenac to validate improved BM3 variants. The reactions were shaken at 450 rpm at 30° C. over 24 hours. All reactions were diluted with acetonitrile to a final concentration of 0.5 mM substrate. The plates were then centrifuged at 3,000 g for 1 hour at 20° C. The supernatant was diluted 1:1 with acetonitrile, filtered using a 0.4 micron filter, and analyzed by UPLC-MS.
(§3) For UPLC-MS analysis, the quenched and filtered reactions were transferred to 96-well HTP plates for analysis by UPLC on a Waters Acquity H-class system equipped with an autosampler. 1 uL of quenched sample was injected onto an Acquity UPLC HSS T3 column, 100 Å, (1.8 um; 2.1×100 mm). The column was eluted at a constant flow rate of 0.6 mL/min; conditions with solvent A (0.05% trifluoroacetic acid v/v, in H2O) and solvent B (0.05% trifluoroacetic acid v/v, in acetonitrile) used to elute the products of the reaction were: 0-2 min, A/B 95:5; 2-2.9 min, A/B 5:95; 2.9-3 min, A/B 95:5; 3-3.5 min, A/B 95:5. Column eluent was monitored by PDA (200-600 nm) prior to MS analysis in positive ESI mode (desolvation temperature 350° C., 3.25 kV spray voltage, cone voltage 25V). The column eluent was diverted to waste for the first 0.7 minutes of the run. For the remainder of the LC run, both MS (m/z 95-600 scan range) and MS/MS were collected. […]

[2] = Validation of generalist properties: oxidation of loratadine by lyophilized P450-BM3 variant, UPLC-MS; conditions: for % Conv. / TON: [Loratadine] = 1 mM; for TON: TON = [substrate]*% conversion/[P450]
Experimental: as §1, §2, §3

[3] = Validation of generalist properties: oxidation of imatinib by lyophilized P450-BM3 variant, UPLC-MS; conditions: for % Conv. / TON: [Imatinib] = 1 mM; for TON: TON = [substrate]*% conversion/[P450]
Experimental: as §1, §2, §3

[4] = Validation of generalist properties: oxidation of gefitinib by lyophilized P450-BM3 variant, UPLC-MS; conditions: for % Conv. / TON: [Gefitinib] = 1 mM; for TON: TON = [substrate]*% conversion/[P450]
Experimental: as §1, §2, §3

Molecule | % Conv. [1] | TON [1] | performance (% conversion at 1 mM substrate loading), in words ([1]; diclofenac, 1 mM substrate loading) | % Conv. [2] | TON [2] | performance (% conversion at 1 mM substrate loading), in words ([2]; loratadine, 1 mM substrate loading) | % Conv. [3] | TON [3] | performance (% conversion at 1 mM substrate loading), in words ([3]; imatinib, 1 mM substrate loading) | % Conv. [4] | TON [4] | performance (% conversion at 1 mM substrate loading), in words ([4]; gefitinib, 1 mM substrate loading)
SEQ ID NO: 4: P450-BM3 parental backbone from the commercially available MCYP panel (MCYP-0343; Codexis) (protein, P450_BM3) MTIKEMPQPKTFGELKNLPLLNTDKPVQALMKIADELGEIFKFEAPGCVTRYLSSQRLIKEACDESRFDKNLSQALKFARDFAGDGLVTSWTHEINWKKAHNILLPSFSQQAMKGYHAMMVDIAVQLVQKWERLNADEHIEVSEDMTRLTLDTIGLCGFNYRFNSFYRDQPHPFIISMVRALDEVMNKLQRANPDDPAYDENKRQCQEDIKVMNDLVDKIIADRKARGEQSDDLLTQMLNGKDPETGEPLDDGNISYQIITFLIAGHETTSGLLSFALYFLVKNPHVLQKVAEEAARVLVDPVPSYKQVKQLKYVGMVLNEALRLWPTAPAFSLYAKEDTVLGGEYPLEKGDEVMVLIPQLHRDKTIWGDDVEEFRPERFENPSAIPQHAFKPFGNGQRACIGQQFALHEATLVLGMMLKHFDFEDHTNYELDIKETLTLKPEGFVVKAKSKKIPLGGIPSPSTEQSAKKVRKKAENAHNTPLLVLYGSNMGTAEGTARDLADIAMSKGFAPQVATLDSHAGNLPREGAVLIVTASYNGHPPDNAKQFVDWLDQASADEVKGVRYSVFGCGDKNWATTYQKVPAFIDETLAAKGAENIADRGEADASDDFEGTYEEWREHMWSDVAAYFNLDIENSEDNKSTLSLQFVDSAADMPLAKMHGAFSTNVVASKELQQPGSARSTRHLEIELPKEASYQEGDHLGVIPRNYEGIVNRVTARFGLDASQQIRLEAEEEKLAHLPLAKTVSVEELLQYVELQDPVTRTQLRAMAAKTVCPPHKVELEALLEKQAYKEQVLAKRLTMLELLEKYPACEMKFSEFIALLPSIRPRYYSISSSPRVDEKQASITVSVVSGEAWSGYGEYKGIASNYLAELQEGDTITCFISTPQSEFTLPKDPETPLIMVGPGTGVAPFRGFVQARKQLKEQGQSLGEAHLYFGCRSPHEDYLYQEELENAQSEGIITLHTAFSRMPNQPKTYVQHVMEQDGKKLIELLDQGAHFYICGDGSQMAPAVEATLMKSYADVHQVSEADARLWLQQLEEKGRYAKDVWAG | +++ (10.01-15.00) | ‡‡‡ (5001-10000) | moderate activity | ++++ (15.01-20.00) | ‡‡‡‡ (10000-50000) | moderate activity | ++ (5.01-10.00) | ‡‡ (1001-5000) | low activity | + (0-5.00) | ‡ (0-1000) | low activity
SEQ ID NO: 2: P450-BM3 parental backbone from the commercially available MCYP panel; a chimera, P450 domain 86% identical to Bacillus subtilis P450 (protein, P450_BM3, P450-BM3 parental backbone from the commercially available MCYP panel; a chimera, P450 domain 86% identical to Bacillus subtilis P450) MLMKQASAIPQPKTYGPLKNLPHLEKEQLSQSLWRIADELGPIFRFDFPGVSSVFVSGHNLVAEVCDEERFDKSIEGALEKVRAFSGDGLATSWTHEPNWRKAHNILMPTFSQRAMKDYHEKMVDIATQLIQKWSRLNPNEEIDVADDMTRLTLDTIGLCGFNYRFNSFYRDQPHPFITSMVRALDEAMNKLQRANPDDPAYDENKRQFQEDIKVMNDLVDSIIAERRANGDQDEKDLLARMLNVEDPETGEKLDDENIRFQIITFLIAGHETTSGLLSFAIYCLLTHPEKLKKAQEEADRVLTDDTPEYKQIQQLKYIRMVLNETLRLYPTAPAFSLYAKEDTVLGGEYPISKGQPVTVLIPKLHRDQNAWGPDAEDFRPERFEDPSSIPHHAYKPFGNGQRACIGMQFALQEATMVLGLVLKHFELINHTGYELKIKEALTIKPDDFKITVKPRKTAAINVQRKEQAEQSAKKVRKKAENAHNTPLLVLYGSNMGTAEGTARDLADIAMSKGFAPQVATLDSHAGNLPREGAVLIVTASYNGHPPDNAKQFVDWLDQASADEVKGVRYSVFGCGDKNWATTYQKVPAFIDETLAAKGAENIADRGEADASDDFEGTYEEWREHMWSDVAAYFNLDIENSEDNKSTLSLQFVDSAADMPLAKMHGAFSTNVVASKELQQPGSARSTRHLEIELPKEASYQEGDHLGVIPRNYEGIVNRVTARFGLDASQQIRLEAEEEKLAHLPLAKTVSVEELLQYVELQDPVTRTQLRAMAAKTVCPPHKVELEALLEKQAYKEQVLAKRLTMLELLEKYPACEMKFSEFIALLPSIRPRYYSISSSPRVDEKQASITVSVVSGEAWSGYGEYKGIASNYLAELQEGDTITCFISTPQSEFTLPKDPETPLIMVGPGTGVAPFRGFVQARKQLKEQGQSLGEAHLYFGCRSPHEDYLYQEELENAQSEGIITLHTAFSRMPNQPKTYVQHVMEQDGKKLIELLDQGAHFYICGDGSQMAPAVEATLMKSYADVHQVSEADARLWLQQLEEKGRYAKDVWAG | + (0-5.00) | ‡ (0-1000) | – | + (0-5.00) | ‡ (0-1000) | – | ++ (5.01-10.00) | ‡‡ (1001-5000) | – | + (0-5.00) | ‡ (0-1000) | –
